Target: c-Jun (UniProt P05412)
Experiment: single molecule FRET, surface-immobilized PAGE4
Conditions: reference: PAGE4 P102C expressed alone (nonphosphorylated); sites T51

## PAGE4 (from UniProt O60829) PAGE4 P102C coexpressed with GST-HIPK1 in E. coli
  other: percent of molecules shifted to low FRET with c-Jun: weaker; reference 70

Source: paper PMC4198062
